In assay [1] the target is T1, human coagulation factor XI (human, UniProt P03951 19-625).
T1 construct: Bought from Enzyme Research Laboratory (HFXI 1111); also called FXI; human FXI
The assay can be described thus: capture ELISA screening of hybridomas from animals immunized with human FXI.

Assay [2] deals with T2, human factor XIa (human, UniProt P03951 19-387; P03951 388-625).
T2 construct: also called FXIa
Nature of the assay: SPR (Biacore T200), antibody captured on sensor chip, FXIa 0.063 to 6.25 nM flowed.

Assay [3] has as its target T2, human factor XIa. The assay can be described thus: cell-based or functional assay.
The target of assay [4] is T1, human coagulation factor XI. Nature of the assay: SPR, antibody captured on sensor chip, FXI flowed.
Method: (§1) The interaction of the antibodies with FXI was determined by the SPR assay on a Biacore T200 system (Biacore, GE Healthcare). Briefly, human IgG capture antibody (Biacore, GE Healthcare) was pre-immobilized on a CM5 sensor chip (GE Healthcare), and test antibodies were captured by flowing through the chip. The final amount of the test antibodies captured was adjusted to an equal amount of 15 response units (RU) by adjusting the capture time. Then, antigen FXI was allowed to flow through the chip for 180 s for association and then for 1200 s for dissociation. […] The data were collected and the affinities between the test antibodies and FXI were analyzed using the Biacore Evaluation Software.
(§2) The test antibodies were captured on a sensor chip, and then indicated concentrations of FXI were allowed to flow through the chip.
Assay [5] addresses T2, human factor XIa. Nature of the assay: apparent Ki, inhibition of FXIa (5 nM) cleavage of chromogenic substrate S-2366.
Assay [6] addresses T1, human coagulation factor XI. The assay can be described thus: SPR (Biacore T200), antibody captured on anti-human IgG CM5 chip, FXI 0.063 to 6.25 nM flowed.
Method: as §1, §2
Assay [7] addresses T2, human factor XIa. Nature of the assay: SPR, antibody captured on sensor chip, FXIa flowed.
In assay [8] the target is T2, human factor XIa. The assay can be described thus: SPR (Biacore T200), antibody captured on anti-human IgG CM5 chip, FXIa flowed.
Method: (§3) The affinity of anti-FXI/FXIa antibodies to FXI/FXIa were determined using surface plasmon resonance (SPR) technology performed on the BIAcore T200 instrument. […] These antibodies were captured onto a Biacore CM5 sensor chip that was pre-immobilized with an anti-human IgG antibody.
(§4) Then different concentrations of the purified antigen FXI or FXIa (0.005-1 μg/mL) were allowed to flow through the CM5 chip for 180 s for association with the anti-FXI/FXIa antibody, followed by a time of 1800 s for dissociation. The binding data was collected and the affinity between FXI/FXIa and the test antibodies was analyzed using the Biacore Evaluation Software provided by GE Healthcare.
Assay [9] has as its target T1, human coagulation factor XI. The assay can be described thus: SPR (Biacore T200), antibody captured on anti-human IgG CM5 chip, FXI flowed.
Method: as §3, §4
In assay [10] the target is T2, human factor XIa. Nature of the assay: SPR (Biacore T200), antibody captured on sensor chip, FXIa 0.063 to 6.25 nM flowed. The source holds these as a separate data set.
For assay [11], the target named is T1, human coagulation factor XI. Nature of the assay: SPR (Biacore T200), antibody captured on anti-human IgG CM5 chip, FXI 0.063 to 6.25 nM flowed. The source holds these as a separate data set.
Method: as §1, §2
Assay [12] addresses T2, human factor XIa. Nature of the assay: cell-based or functional assay. The source holds these as a separate data set.

Substitutions are numbered along the chain they refer to. Like-named read-outs stand apart in the source and are kept apart here.

B1: 38E4 (antibody, V domains shown)
VH: EVQLQESGPGLVKPSQSLSLTCSVSGFSITNNYWGWIRKFPRNKMEWIGHISYSGSTNYNPSLKSRISITRDSSKSQFFLQLNSLTTEDTATYYCARGSYYYSASGYFDYWGQGITVTVSS
VL: DIRMTQSPASLSASLGETVNIECLASEDIYSDLAWYQQKPGKSPQLLIYNANSVQNGVPSRFSGSGSGTQYSLKINSLQSEDVATYFCQQFNSYPNTFGAGTKLEIK
notes: Hybridoma monoclonal antibody
For B1, the binding result in [1] is “binds”.

B2: 45H1 (antibody, V domains shown)
VH: EVQLQESGPGLVKPSQSLSLICSVTGYSITTTYWGWIRKFPGNKMEWIGHISNSGSTNYNPSLKSRISVTRDTSTNQFFLQLNSVTTEDTATYYCARGSYYYSASGYFDYWGHGVMVTVSS
VL: B1 VL with E22G, S53N, V54L, F91Y
notes: Hybridoma monoclonal antibody
B2: the binding result in [1] is listed as “binds”.

B3: 19F6 (antibody, V domains shown)
VH: EVQLVESGGGLVQPGRSLRLSCTASGFTFSKYVMAWVRQAPTKGLEWVASINYDGSTTYYRDSVQGRFTLSRDNAKTTLYLQMDSLRSEDTATYYCARHPFNNFGIWFAYWGQGTLVTVSS
VL: QFTLTQPKSVSGSLRSTITIPCERSSGDIGDSYVSWYQQHLGRPPINVIYADDQRPSEVSDRFSGSIDTSSNSASLTITNLQMDDAADYFCQSYDSNIDFNPVFGGGTKLTVL
notes: Hybridoma monoclonal antibody (rat, immunized with human FXI)
In the case of B3, the binding result in assay [1] was “binds”.

B4: 34F8 (antibody, V domains shown)
VH: QVQLKESGPGLVQPSQTLSLTCTVSGFSLTTYHVHWVRQPPGKGLEWMGIMWRDGDTSYNSVLKSRLSISRDISKSQVFLKMSSLQTEDTATYFCARGGTLTTPFTYWGQGTLVTVSS
VL: DVVLTQTPGSLSVTLGQQVSISCRSSQSLESRDGNTYLEWYLQKPGQSPQVLLYGVSNRLSGVPDRFLGRGSGADFTLKISRVEPEDLGVYYCFQATHGPFTFGSGTKLEMK
notes: Hybridoma monoclonal antibody
Take B4: in [1], the binding result was “binds”.

B5: h-19F6 (antibody, V domains shown)
VH: EVQLVESGGGLVQPGRSLRLSCTASGFTFSKYAMSWVRQAPGKGLEWVSAINYDGSTTYYADSVKGRFTLSRDNSKNTLYLQMNSLRAEDTAVYYCARHPFNNFGIWFAYWGQGTLVTVS
VL: QFQLTQPSSVSASVGDRVTITCERSSGDIGDSYVSWYQQKPGQPPKNVIYADDQRPSGVPDRFSGSIDGSGNSASLTISSLQAEDAADYFCQSYDSNIDFNPVFGGGTKLEVK
notes: Humanized rat antibody in human IgG4 form (variable regions linked to human IgG4 Fc domain, expressed in CHO cells); also called humanized 19F6
Take B5: the koff came to 8.36e-05 s⁻¹ in assay [2] and 5.88e-05 s⁻¹ in assay [6]. Also, the kon in assay [2] is 3.24e+06 M⁻¹ s⁻¹; in assay [6], 2.65e+06 M⁻¹ s⁻¹. In addition, the “IC50 (read off the curve)” value in [3] is roughly 3 nM. Also, the Kd in assay [4] came to 0.022 nM; in [7], 0.026 nM; in [8], 0.0258 nM; in assay [9] it was 0.0222 nM. Besides, in assay [5], the Ki is 0.67 nM.

B6: 7C9 (antibody, V domains shown)
VH: QIQLVQSGPELKKPGETVKISCKASGYIFTDYGMNWVKQAPGKGLKWMGWINTYTGEPTYADDFKGRFVFSLETSASTAYLQINNLKNEDTATFFCARRRMGYAVDYWGQGTSVTVSS
VL: DIQMTQSPSSLSASLGERVSLTCRASQDIDIRLNWLRQEPDGTIKRLIYATSSLDSGVPKRFSGSRSGSDYSLTISSLESEDFVDYYCLQYASSPFTFGSGTKLEIK
notes: Hybridoma monoclonal antibody
B6: the binding result in [1] is on record as “binds”.

B7: 3G12 (antibody, V domains shown)
VH: QVTLKESGPGILQPSQTLSLTCSFSGFSLNTPGMGVSWIRQPSGKGLEWLAHIYWDDDKRFNPSLKSRLTISKDTSRDQVFLMITSVDTADSATYFCARKGRGPFTYWGQGTLVTVSS
VL: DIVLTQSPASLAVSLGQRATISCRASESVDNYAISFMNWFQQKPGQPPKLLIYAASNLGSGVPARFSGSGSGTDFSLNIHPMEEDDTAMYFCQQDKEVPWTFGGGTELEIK
notes: Hybridoma monoclonal antibody
Take B7: the binding result in [1] is reported as “binds”.

B8: 5B2 (antibody, V domains shown)
VH: B7 VH with P32S, F61Y, N62K, D78N, S92T, F96Y, A98V, T106A, Y107N, S118A
VL: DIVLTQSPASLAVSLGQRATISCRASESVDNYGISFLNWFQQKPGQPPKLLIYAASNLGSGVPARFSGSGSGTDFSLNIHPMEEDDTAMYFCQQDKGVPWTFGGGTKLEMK
notes: Hybridoma monoclonal antibody
For B8, the binding result in assay [1] is given as “binds”.

B9: 13F4 (antibody, V domains shown)
VH: EVQLKESGPGLVQPSQTLSLTCTVSGFSLTDYSVHWVRQPPGKGLEWMGVMWSGGSTAYNPALTSRLTISRDTSKSQVFLKMNSLQTEDTAIYYCTRAPFNNWGNWLPYWGQGTLVTVSS
VL: QFTLTQPKSVSGSLRSTITIPCERSSGDIGDSYVSWYQQHLGRPPINVIYADDQRPSEVSARFSGSIDSSSNSASLTITNLQMDDEADYFCQSYDTYMDVVFGGGTKLNVL
notes: Hybridoma monoclonal antibody
On to B9, for which, in assay [1], the binding result is given as “binds”.

B10: 42A5 (antibody, V domains shown)
VH: QVQLKESGPGLVQPSQTLSLTCTVSGFSLTSYHLHWIRQPPGKGLEWMGLMWRDGDTSYNSRLKSRLSITRDTSKSQVFLKMSGLQTEDTATYYCARGMTLATPFLYWGQGTLVTVSS
VL: DVVLTQTPGSLSVTLGDPASMSCRSSQSLESSDGNTYLEWYLQKSGQSPQLLIYGVSNRFSGVPDRFAGSGSGTDFTLKISRVEPEDLGVYYCFQATRDPFTFGSGTKLEIN
notes: Hybridoma monoclonal antibody
In the case of B10, the binding result in [1] is reported as “binds”.

B11: 21F12 (antibody, V domains shown)
VH: EVQLVESGGGLVQPGRSLKLSCVASGFTFNNHWMTWIRQAPGKGLEWVASITDNGGSTYYPDSVKGRFTISRDNAKSTLYLHMNSLRSEDTATYYCTRDRYDSDGYYYVRYYVVDAWGQGASVTVSS
VL: DVRMTQSPASLSASLGETVNIECLASEDIYSDLAWYQQKPGKSPQLLIYNANSLQNGVPSRFSGSGSGTQYSLKISTLQSEDVATYFCQQYSNYRRTFGGGTKLEIN
notes: Hybridoma monoclonal antibody
For B11, the binding result in [1] is “binds”.

B12: 42F4 (antibody, V domains shown)
VH: B2 VH with I21T, T31N, T32H, S56G, V69I, T75K, N83K, A96T, H113Q, M116L
VL: B1 VL with Y30H, V54L, N76T, F91Y, N92T, S93N, K107N
notes: Hybridoma monoclonal antibody
For the molecule B12, in assay [1], the binding result is given as “binds”.

B13: h-42A5 (antibody, V domains shown)
VH: QVTLKESGPVLVKPTETLTLTCTVSGFSLTSYHLHWIRQPPGKALEWMGLMWRDGDTSYNSRLKSRLTISRDTSKSQVVLTMTNMDPVDTATYYCARGMTLATPFLYWGQGTLVTVSS
VL: DVVLTQTPLSLSVTPGQPASISCRSSQSLESSDGNTYLEWYLQKPGQSPQLLIYGVSNRFSGVPDRFSGSGSGTDFTLKISRVEAEDLGVYYCFQATRDPFTFGQGTKLEIKR
notes: Humanized antibody in human IgG4 form; also called humanized 42A5
For the molecule B13, the off-rate (koff) in assay [10] was determined as 1.38e-05 s⁻¹; in [11] it was 4.07e-05 s⁻¹. Moreover, the kon in assay [10] was 1.69e+06 M⁻¹ s⁻¹; in assay [11], 1.14e+06 M⁻¹ s⁻¹. Further, the equilibrium dissociation constant (Kd) stood at 0.036 nM in assay [4], 0.0081 nM in [7], 0.00814 nM in [8] and 0.0357 nM in assay [9]. The Ki in [5] was found to be 1.43 nM. In assay [12], the “IC50 (read off the curve)” value was roughly 5 nM.

B14: h-34F8 (antibody, V domains shown)
VH: QVQLQESGPGLVKPSETLSLTCTVSGFSLTTYHVHWVRQPPGKGLEWIGIMWRDGDTYYNSSLKSRVTISRDTSKNQVSLKLSSVTAADTAVYFCARGGTLTTPFTYWGQGTLVTVSS
VL: B13 VL with S12P, Q17E, S32R, L51V, I53L, F60L, L88V, R98H, D99G
notes: Humanized antibody in human IgG4 form; also called humanized 34F8
In the case of B14, the Ki in assay [5] was 2.08 nM. For the same molecule, the values for the equilibrium dissociation constant (Kd) in [8] and in [9] were 0.00385 nM and 0.0195 nM, respectively.

The record behind these values is patent US20200024362A1 (SHANGHAI BENEMAE PHARMACEUTICAL, published 2020).
